Measurements from patent publication US20170313776A1 (SORRENTO THERAPEUTICS, published 2017).
Substitutions are numbered along the chain they refer to. Names may count otherwise. One block for each binder: values may come before it.

What was measured:
[1] = biological target: T1, PD-L1 expressed on CHO-PD-L1 cells (UniProt Q9NZQ7 19-290, limits assumed); assay: flow cytometry on CHO-PD-L1 cells
T1 construct: whole, on cells
Description: (§1) This example illustrates in vitro data for cellular binding EC50 measurements and cell binding specificity. […] The experimental procedure was as follows: CHO-PD-1 cells and CHO-PD-L1 cells were obtained by stably transfecting CHO-K1 cells with PD-1 cDNA ORF clone (Origene RG210364) and PD-L1 cDNA ORF clone (Origene RG213071) respectively. After 2 weeks of Neomycin selection, clones were isolated by Fluorescence-activated cell sorting (FACS) and further expanded. […] For cell binding assays, 50,000 CHO-PD-1 cells, CHO-PD-L1 cells, and ES-2 cells were aliquoted into the wells of a 96-well, v-bottom plate in 100 μl FACS Buffer (PBS+2% FBS). A twelve point, 3× dilution curve of each anti-PD-1 antibody was made in FACS Buffer starting at 50 μg/ml (3.33×10⁻⁷M). Cells were spun down, washed twice with FACS Buffer, and then resuspended in 25 μl of antibody solution in triplicate. After 0.5 hr incubation, cells were washed 1× with FACS Buffer and resuspended in 50 μl PE-conjugated, goat anti-human IgG (γ-chain specific) secondary antibody (Southern Biotech Cat #2040-09). Cells were further incubated for 0.5 hr and then washed 1× with FACS Buffer. Cells were resuspended in 25 μl FACS Buffer and the median fluorescence intensity in the FL2-H channel was determined using the Intellicyt HTFC flow cytometer. Data was analyzed and plotted in Graph Pad Prism using non-linear regression fit.
(§2) Data points on the graph are shown as the median fluorescence intensity (MFI) of positively labeled cells depending on the antibody concentration +/− Std Error.

[2] = biological target: T2, human PD-1 expressed on cells (human, UniProt Q15116 25-288); assay: flow cytometry on CHO-PD-1 cells
T2 construct: whole, on cells; One entry for cell-surface PD-1; also called CHO-PD-1 cells; Jurkat PD-1 cells
Description: as §1, §2

[3] = biological target: T3, recombinant human PD-1 protein (human, UniProt Q15116 25-167, limits assumed); assay: Biacore, antibody captured on protein A, monomeric recombinant human PD-1 as analyte
T3 construct: also called monomeric recombinant human PD-1

[4] = biological target: T4, recombinant cynomolgus PD-1 (cynomolgus); assay: ELISA on recombinant cynomolgus PD-1
T4 construct: also called cyno PD-1

[5] = biological target: T3, recombinant human PD-1 protein; assay: ELISA on recombinant human PD-1
[6] = biological target: T5, recombinant human PD1 (His-tagged) protein (human, UniProt Q15116 25-167, limits assumed); assay: SPR, antibody captured on anti-human Fc, PD1/His as analyte, 1:1 Langmuir fit
T5 construct: not shown: His tag
Experimental: Anti-human Fc antibody was immobilized on CMS sensor chip with approximately 1000 RU. Antibodies (about 10 μg/ml) were captured for 60 s at a flow rate 10 μl/min.PD1/His was serially diluted in running buffer (HBS-EP). All measurements were conducted with a flow rate of 30 μL/min. Surfaces were regenerated with 3M MgCl₂ for 60 s. A 1:1 (Langmuir) binding model was used to fit the data.

human ICOS (recombinant) = biological target: T6, human ICOS (recombinant) (human, UniProt Q9Y6W8 21-140, limits assumed); assay: ELISA on coated recombinant protein, one antibody concentration (not given)
T6 sequence (looked up): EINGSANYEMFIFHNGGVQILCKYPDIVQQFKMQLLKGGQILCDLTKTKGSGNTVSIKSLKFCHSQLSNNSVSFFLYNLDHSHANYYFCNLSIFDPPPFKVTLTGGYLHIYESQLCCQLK

human CD28 (recombinant) = human CD28 (recombinant) (human, UniProt P10747 19-152); assay: as above
[7] = biological target: human CTLA-4 (recombinant) (human, UniProt P16410 36-161, limits assumed); assay: as above
[8] = biological target: T2, human PD-1 expressed on cells; assay: flow cytometry on Jurkat T cells stably expressing human PD-1
Description: Primary antibody binding to Jurkat PD-1 cells was detected by flow cytometry using either anti-heavy chain or light chain antibodies directly conjugated to fluorochromes (identical binding curves were obtained using either detection reagent).

recombinant mouse PD-1 = biological target: T7, recombinant mouse PD-1 (mouse, UniProt Q02242 25-167, limits assumed); assay: ELISA, detection with anti-human IgG4 heavy chain or anti-human lambda light chain
T7 sequence (looked up): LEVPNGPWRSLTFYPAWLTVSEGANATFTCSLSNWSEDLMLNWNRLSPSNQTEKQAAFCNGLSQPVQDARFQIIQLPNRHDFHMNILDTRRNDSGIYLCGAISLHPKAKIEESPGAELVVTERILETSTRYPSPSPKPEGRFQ

[9] = biological target: T2, human PD-1 expressed on cells; assay: flow cytometry on anti-CD3-activated PBMC
Experimental: (§3) This example illustrates in vitro data for cellular binding EC50 measurements. […] The experimental procedure is as follows. Peripheral blood mononuclear cells (PBMC) were added to the wells of a 24 well plate and stimulated anti-CD3 (3 ng/ml). After three days of culture the cells were harvested and added to the wells of wells of a 96-well, v-bottom plate in 100 μl FACS Buffer (PBS+2% FBS). A twelve point, 3× dilution curve of each anti-PD-1 antibody was made in FACS Buffer starting at 10 μg/ml (0.6×10⁻⁷M). Cells were spun down, washed twice with FACS Buffer, and then resuspended in 25 μl of antibody solution in triplicate. After 0.5 hr incubation, cells were washed 1× with FACS Buffer and resuspended in 50 μl PE-conjugated, goat anti-human IgG (γ-chain specific) secondary antibody (Southern Biotech Cat #2040-09). Cells were further incubated for 0.5 hr and then washed 1× with FACS Buffer. Cells were resuspended in 25 μl FACS Buffer and the median fluorescence intensity in the FL2-H channel was determined using the Intellicyt HTFC flow cytometer. Data was analyzed and plotted in Graph Pad Prism using non-linear regression fit.

[10] = biological target: T2, human PD-1 expressed on cells; assay: flow cytometry on anti-CD3-activated PBMC; remark: listed apart in the source
Experimental: as §3

[11] = biological target: T5, recombinant human PD1 (His-tagged) …; assay: BIAcore, mAb captured on anti-human Fc, His-tagged human PD1 as analyte

T5 sequence (Q15116 25-167 limits assumed): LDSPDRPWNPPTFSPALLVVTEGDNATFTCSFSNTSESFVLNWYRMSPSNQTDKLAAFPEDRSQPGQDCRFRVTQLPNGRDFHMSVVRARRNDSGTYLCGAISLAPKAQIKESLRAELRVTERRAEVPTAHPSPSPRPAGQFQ
T3 sequence (Q15116 25-167 limits assumed): as above
T1 sequence (Q9NZQ7 19-290 limits assumed): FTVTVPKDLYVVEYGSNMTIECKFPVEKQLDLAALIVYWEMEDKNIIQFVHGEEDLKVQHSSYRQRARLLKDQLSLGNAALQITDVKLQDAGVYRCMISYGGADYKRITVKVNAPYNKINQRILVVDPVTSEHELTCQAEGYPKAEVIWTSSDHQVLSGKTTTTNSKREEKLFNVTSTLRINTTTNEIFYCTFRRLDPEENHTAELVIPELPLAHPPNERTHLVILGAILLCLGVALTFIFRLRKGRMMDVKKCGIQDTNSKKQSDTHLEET
T2 sequence (Q15116 25-288): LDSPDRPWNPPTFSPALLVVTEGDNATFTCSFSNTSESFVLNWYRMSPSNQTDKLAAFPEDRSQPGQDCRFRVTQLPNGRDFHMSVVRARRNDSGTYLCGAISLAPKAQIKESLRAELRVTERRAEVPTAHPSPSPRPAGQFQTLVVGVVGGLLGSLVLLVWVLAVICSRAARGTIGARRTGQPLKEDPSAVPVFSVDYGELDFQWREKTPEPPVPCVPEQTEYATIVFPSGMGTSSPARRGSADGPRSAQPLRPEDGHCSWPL
human CTLA-4 (recombinant), sequence (P16410 36-161 limits assumed): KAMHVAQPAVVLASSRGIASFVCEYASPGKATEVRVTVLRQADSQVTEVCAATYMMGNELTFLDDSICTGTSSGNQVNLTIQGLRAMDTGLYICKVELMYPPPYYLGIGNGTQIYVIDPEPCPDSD

B1: RG4A6 (IgG) (antibody, V domains shown)
VH: EVQLVESGGGLVQPGGSLRLSCAASGFTFSSYWMHWVRQAPGKGLEWVSSISSSSSYIYYADSVKGRFTISRDNAKNSLYLQMNSLRAEDTAVYYCARDTLEYYGSGILENAMGYYGMDVWGQGTTVTVSS
VL: not shown
notes: Detected with anti-human IgG (gamma chain specific); also called PD1 RG4A6
binding result [1]: no binding (tested: 50 µg/ml (3.33×10^-7M) top concentration)
EC50 [2]: 779 pM

B4: RG1H10 (IgG1) (antibody, V domains shown)
VH: QVQLVQSGSELKKPGASVKISCKASGYIFSDNGVNWVRQAPGQGLEWMGWINTKIGNPTYAQGFTGRFVFSLDTSISTTYLQISSLQAGDTAVYYCAREHDYYYGMDVWGQGTTVTVSS
VL: QSALTQPPSASGSPGQSVTISCTGTSSDVGGYNYVSWYQHHPGKAPKLMIYEVSKRPSGVPDRFSGSKSAITASLTISGLLTEDEADYYCSAWDDSLNADVFGGGTKVTVL
notes: IgG1; also called RG1H10 as immunoglobulin gamma 1
EC50 [9]: 670 pM
EC50 [10]: 670 pM
Kd [11]: 1300 pM
koff [11]: 0.001 s⁻¹
kon [11]: 750000 M⁻¹ s⁻¹

B6: RG1H10 (IgG4 S228P) (antibody, V domains shown)
VH: B4 VH
VL: B4 VL
notes: also called RG1H10 as immunoglobulin gamma 4 with hinge mutation S228P
EC50 [9]: 47 pM
EC50 [10]: 47 pM
Kd [11]: 1600 pM
koff [11]: 0.0014 s⁻¹
kon [11]: 880000 M⁻¹ s⁻¹

B7: H7 (IgG) (antibody, V domains shown)
VH: B4 VH with I76V
VL: QSVLTQPASVSGSPGQSVTISCTGSSSDVGAYNFVSWYRQYPGKAPKLLIYEVNKRPSDVPDRFSGSKFGNTASLTVSGLQADDEADYYCSSYAGSTDVFGTGTKVTVL
notes: Detected with anti-human IgG (gamma chain specific); also called PD1 H7
binding result [1]: no binding (tested: 50 µg/ml (3.33×10^-7M) top concentration)
EC50 [2]: 222 pM

B9: RG2H10 (IgG) (antibody, V domains shown)
VH: QVQLQQSGPGLVRPSQTLSLSCDISGDSVSSNSATWNWIRQSPSRGLEWLGRTFYRSKWYHDYALSVKSRITINPDTSKNQFSLQLNSVSPGDTAVYFCVREDIDGRLDYWGQGTLVTVSS
VL: QPVLTQPASVSGSPGQSITISCTGTSSDVGGYNYVSWYQQHPGKAPKLMIYDVSNRPSGVSNRFSGSKSGNTASLAITGLQSDDDADYYCSAWDDSLNADVFGGGTKLTVL
notes: Detected with anti-human IgG (gamma chain specific); also called PD1 RG2H10
binding result [1]: no binding (tested: 50 µg/ml (3.33×10^-7M) top concentration)
EC50 [2]: 2800 pM

Further binders by falling EC50 [2], results first:

EC50 [2]: 202 pM
B8: GA2 (IgG) (antibody, V domains shown)
VH: B4 VH with I76V
VL: QPVLTQPPSASGTPGQRVTISCSGSSSNIGTNTVNWYQQVPGTAPKLLIHGNDQRPSGVPDRFSGSKSDTSASLAITGLQSDDDADYYCSAWDDSLNADVFGGGTKLTVL
notes: Detected with anti-human IgG (gamma chain specific); also called PD1 GA2
binding result [1]: no binding (tested: 50 µg/ml (3.33×10^-7M) top concentration)

EC50 [2]: 183 pM
B2: RG1B3 (IgG) (antibody, V domains shown)
VH: QVQLVQSGAEVKKPGASVKVSCKASGYTFTSYGISWVRQAPGQGLEWMGWISAYNGNTNYAQKLQGRVTMTTDTSTSTAYMELRSLRSDDTAVYYCARGLYGDEDYWGQGTLVTVSS
VL: LPVLTQPPSVSEVPGQRVTISCSGGISNIGSNAVNWYQHFPGKAPKLLIYYNDLLPSGVSDRFSASKSGTSASLAISGLRSEDEADYYCAAWDDNLSAYVFATGTKVTVL
notes: Detected with anti-human IgG (gamma chain specific); also called PD1 RG1B3
binding result [1]: no binding (tested: 50 µg/ml (3.33×10^-7M) top concentration)

EC50 [2]: 115 pM
B5: SH-A4 (IgG) (antibody, V domains shown)
VH: B4 VH with I76V
VL: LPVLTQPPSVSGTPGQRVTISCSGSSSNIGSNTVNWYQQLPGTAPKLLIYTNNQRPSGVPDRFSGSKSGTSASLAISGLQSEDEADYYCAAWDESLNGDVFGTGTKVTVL
notes: Detected with anti-human IgG (gamma chain specific); also called PD1 SHA4
binding result [1]: no binding (tested: 50 µg/ml (3.33×10^-7M) top concentration)

Kd [3]: 3200 pM
fold affinity against competitor 3 [3]: ~10 fold
EC50 [4]: 840 pM
EC50 [2]: 35.8 pM
EC50 [5]: 391 pM
Ka [6]: 1.25e+09 M⁻¹
Kd [6]: 802 pM
koff [6]: 0.00104 s⁻¹
kon [6]: 1.3e+06 M⁻¹ s⁻¹
binding result (human ICOS (recombinant)): no binding
binding result (human CD28 (recombinant)): no binding
binding result [7]: no binding
EC50 [8]: 25800 pM
fold maximal binding against competitor 1 [8]: ~2 fold lower
binding result (recombinant mouse PD-1): no binding
B3: anti-PD-1 antibody RG1H10 (IgG, isotype not stated in the assay) (antibody, V domains shown)
VH: B4 VH
VL: B4 VL
notes: also called PD1 RG1H10
binding result [1]: no binding (tested: 50 µg/ml (3.33×10^-7M) top concentration)
